Measurements: US11535650 (RA PHARMACEUTICALS, dated 2022)
Starred links: 1 amine or outer side, 2 acyl side, 3 side chain; linkers in the order of their positions; H or OH if unused. Positions of bridges follow the written chain, without caps; N, C: chain ends. Non-standard residues stand in square brackets, D forms with d. Primed or numbered codes have the meaning given here. No end group written: not given here. mXylyl(3) = bridging moiety between the two residues given in brackets; Tyr(OMe) = O-methyl tyrosine, COc1ccc(C[C@H](N[*:1])C(=O)[*:2])cc1; mXylyl(5) = bridging moiety between the two residues (meta-xylyl); Phe(3-CH2NH2) = O=C([C@H](Cc1cccc(CN[*:3])c1)N[*:1])[*:2]; mXylyl = bridging moiety between residues (mXylyl(i,j)); Trp(5-F) = N[C@@H](Cc1c[nH]c2ccc(F)cc12)C(=O)O; Trp(7-aza) = N[C@@H](Cc1c[nH]c2ncccc12)C(=O)O; mXylyl(4) = bridging moiety between residues; NMePhe(4-F) = CN[C@@H](Cc1ccc(F)cc1)C(=O)O; hPhe(3-Cl) = N[C@@H](CCc1cccc(Cl)c1)C(=O)O; PEG2000 = polyethylene glycol, 2000 Da; Phe(4-F) = N[C@@H](Cc1ccc(F)cc1)C(=O)O; 2Nal = N[C@@H](Cc1ccc2ccccc2c1)C(=O)O; Phg(2-OMe) = COc1ccccc1[C@H](N)C(=O)O; pXylylene = c1cc(C[*:2])ccc1C[*:1]; hPhe = N[C@@H](CCc1ccccc1)C(=O)O; NMeD = CN[C@@H](CC(=O)O)C(=O)O; dChg = N[C@@H](C(=O)O)C1CCCCC1; Chg = N[C@H](C(=O)O)C1CCCCC1; Phg = N[C@H](C(=O)O)c1ccccc1; Tle = CC(C)(C)[C@H](N)C(=O)O; NMeS = CN[C@@H](CO)C(=O)O; Ac5c = NC1(C(=O)O)CCCC1; Nva = CCC[C@H](N)C(=O)O; Thp = NC1(C(=O)O)CCOCC1; Aib = CC(C)(N)C(=O)O; Sar = CNCC(=O)O

B1: R3006 (peptide)
peptide: Ac-YEN[Tle]Y[Trp(7-aza)]EY[Sar][Nva][NMeS]-NH2
SMILES: CCC[C@H](NC(=O)CN(C)C(=O)[C@H](Cc1ccc(O)cc1)NC(=O)[C@H](CCC(=O)O)NC(=O)[C@H](Cc1c[nH]c2ncccc12)NC(=O)[C@H](Cc1ccc(O)cc1)NC(=O)[C@@H](NC(=O)[C@H](CC(N)=O)NC(=O)[C@H](CCC(=O)O)NC(=O)[C@H](Cc1ccc(O)cc1)NC(C)=O)C(C)(C)C)C(=O)N(C)[C@@H](CO)C(N)=O
B2: R3072 (peptide)
peptide: Ac-[Nva][Nva]YEN[Tle]Y[Trp(7-aza)]EYP[Chg][Nva]K-NH2
SMILES: CCC[C@H](NC(C)=O)C(=O)N[C@@H](CCC)C(=O)N[C@@H](Cc1ccc(O)cc1)C(=O)N[C@@H](CCC(=O)O)C(=O)N[C@@H](CC(N)=O)C(=O)N[C@H](C(=O)N[C@@H](Cc1ccc(O)cc1)C(=O)N[C@@H](Cc1c[nH]c2ncccc12)C(=O)N[C@@H](CCC(=O)O)C(=O)N[C@@H](Cc1ccc(O)cc1)C(=O)N1CCC[C@H]1C(=O)N[C@H](C(=O)N[C@@H](CCC)C(=O)N[C@@H](CCCCN)C(N)=O)C1CCCCC1)C(C)(C)C
B3: R3077 (peptide)
peptide: Ac-[Nva][Nva]YEN[Tle]Y[Trp(7-aza)]EYP[Chg][Nva]K
modifications: not fully specified (residue 14, C-terminus); printed as Ac-Nvl-Nvl-Y-E-N-Tbg-Y-azaTrp-E-Y-P-Chg-Nvl-K-(PEG2000) NH2; also: PEG2000 at C-terminal Lys, attachment site unstated
B4: R3192 (peptide)
peptide: Ac-KVERFD[NMeD][Tle]Y[Trp(7-aza)]EYP[Chg]K-NH2
modifications: lactam 1-6
SMILES: CC(=O)N[C@H]1CCCCNC(=O)C[C@@H](C(=O)N(C)[C@@H](CC(=O)O)C(=O)N[C@H](C(=O)N[C@@H](Cc2ccc(O)cc2)C(=O)N[C@@H](Cc2c[nH]c3ncccc23)C(=O)N[C@@H](CCC(=O)O)C(=O)N[C@@H](Cc2ccc(O)cc2)C(=O)N2CCC[C@H]2C(=O)N[C@H](C(=O)N[C@@H](CCCCN)C(N)=O)C2CCCCC2)C(C)(C)C)NC(=O)[C@H](Cc2ccccc2)NC(=O)[C@H](CCCNC(=N)N)NC(=O)[C@H](CCC(=O)O)NC(=O)[C@H](C(C)C)NC1=O

target: T1, human C5 protein (human, UniProt P01031 19-673; P01031 678-1676); experiment: cell-based or functional assay

Binder	Avg. IC50, human hemolysis assay (complete human sera) [µM]
Ac-[Nva]C[Phg]T[Trp(7-aza)]EYPHC[Nva]-NH2 (linker 2-10 via pXylylene) [R3065]	0.394
B1	0.267
B2	0.0269
Ac-[Nva]C[Phg]T[Trp(7-aza)]E[Phe(4-F)][NMeS]HC[Nva]-NH2 (linker 2-10 via mXylyl(5)) [R3073]	0.403
Ac-[Nva]C[Phg]T[Trp(7-aza)]E[Tyr(OMe)][NMeS]HC[Nva]-NH2 (linker 2-10 via mXylyl(5)) [R3074]	0.308
[Nva]CY[NMeS][Phg][NMePhe(4-F)][NMeS]H[NMePhe(4-F)]GC-NH2 (linker 2-11 via mXylyl(5)) [R3075]	> 75
B3	0.0817
PEG2000-[Nva][Nva]YEN[Tle]Y[Trp(7-aza)]EYP[Phg][Nva]-NH2 [R3078]	0.568
Ac-[Nva]CKE[Phg]YC[NMeS][Tle]K[Trp(7-aza)]EY-NH2 (linker 2-7 via mXylyl) [R3007]	0.314
Ac-[Nva]C[Phg]T[Trp(7-aza)]EY[NMeS]C[Nva]-NH2 (linker 2-9 via mXylyl(5)) [R3080]	> 50
Ac-VC[Phg]T[Trp(7-aza)]EY[NMeS]AC[Nva]-NH2 (linker 2-10 via mXylyl(5)) [R3083]	> 25
Ac-[Nva]C[Phg]T[Trp(7-aza)]EYSAC[Nva]-NH2 (linker 2-10 via mXylyl(5)) [R3084]	> 100
Ac-[Nva]SYEC[Tle]Y[Trp(7-aza)]EYP[Chg]C[Nva]-NH2 (linker 5-13 via mXylyl(5)) [R3086]	> 50
Ac-[Nva]C[Phg(2-OMe)]T[Trp(7-aza)]EY[NMeS]HC[Nva]-NH2 (linker 2-10 via mXylyl(5)) [R3087]	> 25
Ac-[Nva]C[Phg]T[Trp(5-F)]EY[NMeS]AC[Nva]-NH2 (linker 2-10 via mXylyl(5)) [R3088]	> 100
Ac-[Chg]C[Phg]T[Trp(7-aza)]EY[NMeS]AC[Nva]-NH2 (linker 2-10 via mXylyl(4)) [R3089]	> 15
Ac-[Nva]CFT[Trp(7-aza)]EY[NMeS]AC[Nva]-NH2 (linker 2-10 via mXylyl(4)) [R3090]	> 100
Ac-[Nva]C[Phg]TWEY[NMeS]AC[Nva]-NH2 (linker 2-10 via mXylyl(4)) [R3091]	0.483
Ac-[Nva]C[Phg]TFEY[NMeS]AC[Nva]-NH2 (linker 2-10 via mXylyl(4)) [R3092]	> 50
Ac-[Nva]C[dChg]T[Trp(7-aza)]EY[NMeS]AC[Nva]-NH2 (linker 2-10 via mXylyl(4)) [R3093]	> 100
Ac-[Nva]C[Phg]T[Trp(7-aza)]E[hPhe][NMeS]AC[Nva]-NH2 (linker 2-10 via mXylyl(4)) [R3095]	> 50
Ac-[Nva]C[Phg][Aib][Trp(7-aza)]EY[NMeS]HC[Nva]-NH2 (linker 2-10 via mXylyl(3)) [R3096]	> 50
Ac-[Nva]C[Phg]T[Trp(7-aza)]DY[NMeS]AC[Nva]-NH2 (linker 2-10 via mXylyl(4)) [R3097]	> 100
Ac-[Nva]C[Phg]T[Trp(7-aza)]QY[NMeS]AC[Nva]-NH2 (linker 2-10 via mXylyl(4)) [R3098]	> 100
Ac-[Nva]C[Phg]T[Trp(7-aza)]NY[NMeS]AC[Nva]-NH2 (linker 2-10 via mXylyl(4)) [R3099]	> 100
Ac-[Nva]C[Phg]T[Trp(7-aza)]EF[NMeS]AC[Nva]-NH2 (linker 2-10 via mXylyl(4)) [R3100]	0.626

target: T1, human C5 protein; experiment: cell-based or functional assay; remark: another data set of the same source

Binder	Avg. IC50, hemolysis assay (C5 depleted sera + purified human C5) [µM]
Ac-CVERFCD[Tle]Y[Trp(7-aza)]EWP[Chg][Nva] (linker 1-6 via mXylyl(3)) [R3177]	0.012
Ac-CVERFCD[Tle]Y[Trp(7-aza)]E[hPhe(3-Cl)]P[Chg][Nva] (linker 1-6 via mXylyl(3)) [R3179]	0.083
Ac-CVERFCD[Tle]Y[Trp(7-aza)]E[2Nal]P[Chg][Nva] (linker 1-6 via mXylyl(3)) [R3180]	0.029
Ac-CVERFCD[Tle]Y[Phe(3-CH2NH2)]EYP[Chg][Nva] (linker 1-6 via mXylyl(3)) [R3181]	1.5
VERFCDGYWEYPGV ([cyclo-thioalkyl(1,5)]V-E-R-F-C-D-Tbg-Y-azaTrp-E-Y-P-Chg-Nvl) [R3184]	0.004
Ac-CVERFC[Ac5c][Tle]Y[Trp(7-aza)]EYP[Chg][Nva] (linker 1-6 via mXylyl(3)) [R3185]	0.0125
Ac-CVERFC[Thp][Tle]Y[Trp(7-aza)]EYP[Chg][Nva] (linker 1-6 via mXylyl(3)) [R3186]	0.018
Ac-CAERFCD[Tle]Y[Trp(7-aza)]EYP[Phg]K(C16) (linker 1-6 via mXylyl(3)) [R3189]	0.0815
B4	0.0015
Ac-KVERFD[NMeD][Tle]Y[Trp(7-aza)]EYP[Chg]K(C16)-NH2 (lactam 1-6) [R3194]	0.0155
